Earlier results as cited in patent publication US5591427A, “Human Interleukin-3(Il-3) variants and their use to promote or antagonize IL-3-mediated processes” (Medvet Science Pty. Ltd., priority 1979, dated 1997).

What was measured:
M-07 cell line = conditions: E. coli expressed variants, literature; cited from earlier work
IL-3 receptor = molecular target: T1, IL-3 receptor (Homo sapiens, UniProt P26951+P32927); conditions: E. coli expressed variants, literature; cited from earlier work
T1 sequence (P26951 19-378): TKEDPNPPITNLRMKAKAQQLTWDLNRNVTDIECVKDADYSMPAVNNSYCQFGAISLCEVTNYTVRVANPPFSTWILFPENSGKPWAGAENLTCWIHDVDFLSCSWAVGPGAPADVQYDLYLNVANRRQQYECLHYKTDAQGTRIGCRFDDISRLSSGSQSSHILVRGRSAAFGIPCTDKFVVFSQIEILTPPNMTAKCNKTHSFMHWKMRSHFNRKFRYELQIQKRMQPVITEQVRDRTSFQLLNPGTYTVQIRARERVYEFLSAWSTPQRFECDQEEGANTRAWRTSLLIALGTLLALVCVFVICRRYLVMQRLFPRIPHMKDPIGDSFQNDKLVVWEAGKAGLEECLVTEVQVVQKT
T1 sequence (P32927 17-897): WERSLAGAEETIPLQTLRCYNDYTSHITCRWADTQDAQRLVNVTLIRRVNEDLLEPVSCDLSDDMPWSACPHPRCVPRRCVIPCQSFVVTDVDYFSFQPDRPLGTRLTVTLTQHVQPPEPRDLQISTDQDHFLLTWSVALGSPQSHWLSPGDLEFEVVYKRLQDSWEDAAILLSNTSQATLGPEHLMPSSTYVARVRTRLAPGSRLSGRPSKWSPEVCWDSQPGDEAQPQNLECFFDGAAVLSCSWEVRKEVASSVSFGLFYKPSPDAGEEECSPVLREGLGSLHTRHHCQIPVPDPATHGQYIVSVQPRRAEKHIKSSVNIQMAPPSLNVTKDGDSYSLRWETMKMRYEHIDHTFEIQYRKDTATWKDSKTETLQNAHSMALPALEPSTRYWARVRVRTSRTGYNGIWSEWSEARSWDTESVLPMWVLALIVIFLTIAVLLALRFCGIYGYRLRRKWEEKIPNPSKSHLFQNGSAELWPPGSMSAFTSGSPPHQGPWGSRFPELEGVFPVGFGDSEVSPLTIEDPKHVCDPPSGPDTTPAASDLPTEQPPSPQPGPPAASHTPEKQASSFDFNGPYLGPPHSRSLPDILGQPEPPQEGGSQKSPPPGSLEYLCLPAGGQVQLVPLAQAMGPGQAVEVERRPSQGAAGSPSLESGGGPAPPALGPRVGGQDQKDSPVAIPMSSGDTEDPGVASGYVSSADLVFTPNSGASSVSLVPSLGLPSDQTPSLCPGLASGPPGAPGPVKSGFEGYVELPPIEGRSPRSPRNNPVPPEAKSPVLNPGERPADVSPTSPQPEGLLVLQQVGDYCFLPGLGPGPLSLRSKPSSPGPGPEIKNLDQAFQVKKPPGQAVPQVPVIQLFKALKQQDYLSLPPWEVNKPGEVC

B1: Gly 33: literature hIL-3 variant in which Pro 33 was substituted with Gly (Lokker et al, 1991a) (protein, UniProt P08700 20-152, looked up, variant P33G)
Interleukin-3: APMTQTTPLKTSWVNCSNMIDEIITHLKQPPLGLLDFNNLNGEDQDILMENNLRRPNLEAFNRAVKSLQNASAIESILKNLLPCLPLATAAPTRHPIHIKDGDWNEFRRKLTFYLKTLENAQAQQTTLSLAIF
proliferation activity, M-07 cells (M-07 cell line): enhanced proliferation activity
receptor binding capacity (IL-3 receptor): without a significant modification
